# Entries after “also recorded” stand apart in the source; their conditions may differ.
# B1: 122R5: lead anti-Notch3 fAb; heavy chain SEQ ID NO: 9, light chain SEQ ID NO: 13; ATCC PTA-8908 (antibody)
# heavy: MKHLWFFLLLVAAPRWVLSQVQLVESGGGLVQPGGSLRLSCAASGFTFSDNAIHWVRQAPGKGLEWVSAISSYGSGTYYADSVKGRFTISRDNSKNTLYLQMNSLRAEDTAVYYCARPGFQFSFTFMDIWGQGTLVTVSSASTKGPSVFPLAPCSRSTSESTAALGCLVKDYFPEPVTVSWNSGALTSGVHTFPAVLQSSGLYSLSSVVTVPSSNFGTQTYTCNVDHKPSNTKVDKTVERKCCVECPPCPAPPVAGPSVFLFPPKPKDTLMISRTPEVTCVVVDVSHEDPEVQFNWYVDGVEVHNAKTKPREEQFNSTFRVVSVLTVVHQDWLNGKEYKCKVSNKGLPAPIEKTISKTKGQPREPQVYTLPPSREEMTKNQVSLTCLVKGFYPSDIAVEWESNGQPENNYKTTPPMLDSDGSFFLYSKLTVDKSRWQQGNVFSCSVMHEALHNHYTQKSLSLSPGK
# light: MAWALLLLTLLTQGTGSWADIELTQPPSVSVAPGQTARISCSGDALGSKYASWYQQKPGQAPVLVIYDDKNRPSGIPERFSGSNSGNTATLTISGTQAEDEADYYCQSWDGKSKVVFGGGTKLTVLGQPKAAPSVTLFPPSSEELQANKATLVCLISDFYPGAVTVAWKADSSPVKAGVETTTPSKQSNNKYAASSYLSLTPEQWKSHRSYSCQVTHEGSTVEKTVAPTECS
# modifications: Synthetic 122R5 Heavy chain; Synthetic 122R5 Light chain
# B2: 90R21: affinity matured anti-Notch1 ligand binding domain antibody; heavy chain SEQ ID NO: 1, light chain SEQ ID NO: 5; ATCC PTA-8909 (antibody)
# heavy: MKHLWFFLLLVAAPRWVLSEVQLLESGGGLVQPGGSLRLSCAASGFTFSNYGMSWVRQAPGKGLEWVSSISGYGSNTYYADSVKGRFTISRDNSKNTLYLQMNSLRAEDTAVYYCARISQQAVWGQGTLVTVSSASTKGPSVFPLAPCSRSTSESTAALGCLVKDYFPEPVTVSWNSGALTSGVHTFPAVLQSSGLYSLSSVVTVPSSNFGTQTYTCNVDHKPSNTKVDKTVERKCCVECPPCPAPPVAGPSVFLFPPKPKDTLMISRTPEVTCVVVDVSHEDPEVQFNWYVDGVEVHNAKTKPREEQFNSTFRVVSVLTVVHQDWLNGKEYKCKVSNKGLPAPIEKTISKTKGQPREPQVYTLPPSREEMTKNQVSLTCLVKGFYPSDIAVEWESNGQPENNYKTTPPMLDSDGSFFLYSKLTVDKSRWQQGNVFSCSVMHEALHNHYTQKSLSLSPGK
# light: MAWALLLLTLLTQGTGSWAQSALTQPASVSGSPGQSITISCTGTSSDIGGYQYVSWYQQHPGKAPKLMIYYVSNRPSGVSNRFSGSKSGNTASLTISGLQAEDEADYYCQSADSSSWVFGGGTKLTVLGQPKAAPSVTLFPPSSEELQANKATLVCLISDFYPGAVTVAWKADSSPVKAGVETTTPSKQSNNKYAASSYLSLTPEQWKSHRSYSCQVTHEGSTVEKTVAPTECS
# modifications: Synthetic 90R21 Heavy chain; Synthetic 90R21 Light chain
# Experiments:
# [1] = tested on: Notch signaling (ICD formation) in Hela cells stably expressing Notch1; experiment: Western blot of Notch ICD formation in response to DLL4; format: cell-based; settings: 10 ug/ml soluble DLL4-Fc; western blot of cell lysates
# Description: FIG. 8: Monoclonal Antibodies to the Notch Ligand Binding Domain Inhibit Notch Signaling. A) A schematic of the Notch signaling mechanism. Upon ligand binding, gamma secretase activity cleaves the Notch receptor and liberates the intracellular domain (ICD) to activate downstream Notch signaling. B) Monoclonal antibodies against the Notch ligand binding domain inhibit Notch signaling in response to Notch ligand DLL4.
# In certain embodiments, the ability of antibodies against a Notch ligand binding region to block Notch signaling was measured by inhibition of Notch cleavage in response to ligand stimulation. Hela cells stably expressing Notch1 were cultured in DMEM supplemented with antibiotics and 10% FCS. Cells were then incubated in the presence of 10 ug/ml soluble DLL4-Fc protein in the presence or absence of monoclonal antibodies against a Notch ligand binding domain, control antibodies, antibodies against Notch1 binding outside the ligand binding region (13M57), and gamma secretase inhibitor DBZ. Cells were harvested and cell lysates analyzed by western blot using an antibody that recognizes the cleaved intracellular domain (ICD) of Notch generated in response to ligand induced signaling (FIG. 8A).
# [2] = biological target: T1, wild type full length Notch1 (Homo sapiens, UniProt P46531); experiment: FACS binding to HEK293 cells co-transfected with GFP and wild type Notch1; settings: HEK293 cells co-transfected with GFP
# T1 construct: co-transfected with GFP and either wild type full length Notch1; expressed in transfected cells; host or cells: HEK293
# Description: (§1) FIG. 4: Identification of a fAb that Binds a Critical Ligand Binding Domain of Notch1. FACS analysis of HEK 293 cells co-transfected with GFP and either wild type Notch or Notch1 E424Q using a human fAb identified by phage display as binding the ligand binding domain of Notch1. GFP expression marked cells expressing recombinant Notch1 protein (x-axis) and binding to Notch1 is indicated along the y-axis.
# (§2) FIG. 5: Identification of an Antibody that Binds the Ligand Binding Region of Multiple Notch Receptors. FACS analysis of HEK 293 cells co-transfected with GFP and wild type Notch3, Notch1 or Notch1 E424Q using a human fAb identified by phage display as binding the ligand binding domain of Notch3. GFP expression marked transfected cells expressing recombinant Notch protein (x-axis). Binding of fAb is indicated on the y-axis.
# (§3) To confirm that the lead Notch1 fAb was specific for the ligand binding region of Notch1, HEK293 cells were co-transfected with GFP and either wild type full length Notch1 or Notch1 containing the amino acid substitution E424Q.
# Notch1 E424Q = biological target: T2, Notch1 E424Q (Homo sapiens, UniProt P46531, E424Q); experiment: FACS binding to HEK293 cells co-transfected with GFP and Notch1 E424Q; settings: HEK293 cells co-transfected with GFP
# T2 construct: Full-length wild type Notch1 or Notch1 E424Q was co-transfected with GFP into HEK 293 cells; expressed in transfected cells; host or cells: HEK293
# Description: as §1, §2, §3
# human Notch3 = human Notch3 (Homo sapiens, UniProt Q9UM47); experiment: fAb binding to human Notch3 (phage display selection)
# Method: (§4) In certain embodiments, phage display identified a specific fAb that binds to the ligand binding domain within Notch1. In certain embodiments, phage display identified a specific fAb that binds to the ligand binding domain within Notch3. In certain embodiments, a fAb was discovered that bound to the ligand binding domain of both Notch3 and Notch1. In certain embodiments, 2×10^13 Fab displaying phage particles from a human fAb phage library were incubated with cells expressing full length recombinant protein or passively immobilized recombinant protein fragments, non-specific phage were washed off, and then specific phage were eluted with either low pH (cells) or DTT (recombinant protein). The eluted output was used to infect TG1 F+ bacteria, rescued with helper phage, and then Fab display induced with IPTG (0.25 mM). The output of this rescued round one served as the starting point for further selections in rounds two, three, four, and five as indicated in Table 1.
# (§5) For Notch3, the phage display library was panned for binding to the analogous epitope within Notch3 (comprising amino acid 403 of Notch3) using similar approach for as Notch1. […] The 122R5 heavy chain comprises the amino acids of SEQ ID NO: 9, including CDR1 (SEQ ID NO: 10); CDR2 (SEQ ID NO: 11) and CDR3 (SEQ ID NO: 12). […]
# murine Notch3 = murine Notch3 (Mus musculus, UniProt Q61982); experiment: fAb binding to murine Notch3 (phage display selection)
# Method: as §4, §5
# Notch3 (E403Q) = Notch3 (E403Q) (Homo sapiens, UniProt Q9UM47, E403Q); experiment: fAb binding to Notch3 with E403Q substitution
# Description: For Notch3, the phage display library was panned for binding to the analogous epitope within Notch3 (comprising amino acid 403 of Notch3) using similar approach for as Notch1. […] The 122R5 heavy chain comprises the amino acids of SEQ ID NO: 9, including CDR1 (SEQ ID NO: 10); CDR2 (SEQ ID NO: 11) and CDR3 (SEQ ID NO: 12). The 122R5 light chain comprises the amino acids of SEQ ID NO: 13, including CDR1 (SEQ ID NO: 14); CDR2 (SEQ ID NO: 15) and CDR3 (SEQ ID NO: 16).
# human Notch1 = biological target: T3, human Notch1 (Homo sapiens, UniProt P46531); experiment: FACS: inhibition of DLL4 binding to Notch1 on stably transfected HEK293 cells; settings: soluble DLL4-fc, increasing concentrations of antibody
# T3 construct: expressed in transfected cells
# Method: FIG. 6: Affinity Matured mAbs that Bind the Ligand Binding Domain of Notch1 Inhibit Binding of DLL4 to Notch1. […] Three affinity matured variants were tested for their ability to block binding between DLL4 and Notch1 (y-axis) in the presence of increasing concentrations of antibody (x-axis).
# The ability of antibodies specific for the critical ligand binding region to inhibit binding of Notch ligands to Notch was evaluated. In certain embodiments, the ability of a panel of affinity matured monoclonal antibodies specific for the Notch1 ligand binding region to inhibit binding of DLL4 to Notch1 was determined by FACS analysis (FIG. 6). HEK293 cells stably transfected with human Notch1 were incubated with soluble DLL4-fc fusion protein in the presence of increasing concentrations of 90R21, 90R22, and 90R29 antibodies. […] HEK293 cells co-transfected with GFP and full length Notch3 were incubated with a soluble human Jag1-fc fusion protein in the absence (No Ab) or presence (122R03E1) of the fAb.
# PE13 breast tumor cells = experiment: PE13 breast tumor xenograft growth; format: in vivo, NOD/SCID mice
# Method: (§6) FIG. 9: Monoclonal Antibodies to the Notch Ligand Binding Domain Inhibit Tumor Growth In Vivo. NOD/SCID mice were injected with dissociated PE13 (A) or T3 (B) breast tumor cells and treated with either control antibodies (black squares); anti-Notch ligand binding region antibodies 90R21 (open circles); control antibodies in combination with Paclitaxel (black triangles); or 90R21 antibodies in combination with Paclitaxel (open triangles).
# (§7) In certain embodiments, tumor cells from a patient sample (solid tumor biopsy or pleural effusion) that have been passaged as a xenograft in mice were prepared for repassaging into experimental animals. Tumor tissue was removed under sterile conditions, cut up into small pieces, minced completely using sterile blades, and single cell suspensions obtained by enzymatic digestion and mechanical disruption. Specifically, pleural effusion cells or the resulting tumor pieces were mixed with ultra-pure collagenase III in culture medium (200-250 units of collagenase per mL) and incubated at 37° C. for 3-4 hours with pipetting up and down through a 10-mL pipette every 15-20 minutes. Digested cells were filtered through a […] nylon mesh, washed with RPMI/20% FBS, and washed twice with HBSS. […]
# (§8) In certain embodiments, anti-Notch ligand binding region antibodies were analyzed for their ability to reduce the growth of breast tumors in vivo. […]
# T3 breast tumor cells = experiment: T3 breast tumor xenograft growth; format: in vivo, NOD/SCID mice; settings: estrogen pellet
# Method: as §6, §7, §8
# [3] = antibody 10 mg/kg twice a week in combination with Paclitaxel 10 mg/kg once a week
# [4] = antibody alone 10 mg/kg twice a week, vs control antibody, after 55 days
# Sequence of human Notch3 (Q9UM47 40-2321): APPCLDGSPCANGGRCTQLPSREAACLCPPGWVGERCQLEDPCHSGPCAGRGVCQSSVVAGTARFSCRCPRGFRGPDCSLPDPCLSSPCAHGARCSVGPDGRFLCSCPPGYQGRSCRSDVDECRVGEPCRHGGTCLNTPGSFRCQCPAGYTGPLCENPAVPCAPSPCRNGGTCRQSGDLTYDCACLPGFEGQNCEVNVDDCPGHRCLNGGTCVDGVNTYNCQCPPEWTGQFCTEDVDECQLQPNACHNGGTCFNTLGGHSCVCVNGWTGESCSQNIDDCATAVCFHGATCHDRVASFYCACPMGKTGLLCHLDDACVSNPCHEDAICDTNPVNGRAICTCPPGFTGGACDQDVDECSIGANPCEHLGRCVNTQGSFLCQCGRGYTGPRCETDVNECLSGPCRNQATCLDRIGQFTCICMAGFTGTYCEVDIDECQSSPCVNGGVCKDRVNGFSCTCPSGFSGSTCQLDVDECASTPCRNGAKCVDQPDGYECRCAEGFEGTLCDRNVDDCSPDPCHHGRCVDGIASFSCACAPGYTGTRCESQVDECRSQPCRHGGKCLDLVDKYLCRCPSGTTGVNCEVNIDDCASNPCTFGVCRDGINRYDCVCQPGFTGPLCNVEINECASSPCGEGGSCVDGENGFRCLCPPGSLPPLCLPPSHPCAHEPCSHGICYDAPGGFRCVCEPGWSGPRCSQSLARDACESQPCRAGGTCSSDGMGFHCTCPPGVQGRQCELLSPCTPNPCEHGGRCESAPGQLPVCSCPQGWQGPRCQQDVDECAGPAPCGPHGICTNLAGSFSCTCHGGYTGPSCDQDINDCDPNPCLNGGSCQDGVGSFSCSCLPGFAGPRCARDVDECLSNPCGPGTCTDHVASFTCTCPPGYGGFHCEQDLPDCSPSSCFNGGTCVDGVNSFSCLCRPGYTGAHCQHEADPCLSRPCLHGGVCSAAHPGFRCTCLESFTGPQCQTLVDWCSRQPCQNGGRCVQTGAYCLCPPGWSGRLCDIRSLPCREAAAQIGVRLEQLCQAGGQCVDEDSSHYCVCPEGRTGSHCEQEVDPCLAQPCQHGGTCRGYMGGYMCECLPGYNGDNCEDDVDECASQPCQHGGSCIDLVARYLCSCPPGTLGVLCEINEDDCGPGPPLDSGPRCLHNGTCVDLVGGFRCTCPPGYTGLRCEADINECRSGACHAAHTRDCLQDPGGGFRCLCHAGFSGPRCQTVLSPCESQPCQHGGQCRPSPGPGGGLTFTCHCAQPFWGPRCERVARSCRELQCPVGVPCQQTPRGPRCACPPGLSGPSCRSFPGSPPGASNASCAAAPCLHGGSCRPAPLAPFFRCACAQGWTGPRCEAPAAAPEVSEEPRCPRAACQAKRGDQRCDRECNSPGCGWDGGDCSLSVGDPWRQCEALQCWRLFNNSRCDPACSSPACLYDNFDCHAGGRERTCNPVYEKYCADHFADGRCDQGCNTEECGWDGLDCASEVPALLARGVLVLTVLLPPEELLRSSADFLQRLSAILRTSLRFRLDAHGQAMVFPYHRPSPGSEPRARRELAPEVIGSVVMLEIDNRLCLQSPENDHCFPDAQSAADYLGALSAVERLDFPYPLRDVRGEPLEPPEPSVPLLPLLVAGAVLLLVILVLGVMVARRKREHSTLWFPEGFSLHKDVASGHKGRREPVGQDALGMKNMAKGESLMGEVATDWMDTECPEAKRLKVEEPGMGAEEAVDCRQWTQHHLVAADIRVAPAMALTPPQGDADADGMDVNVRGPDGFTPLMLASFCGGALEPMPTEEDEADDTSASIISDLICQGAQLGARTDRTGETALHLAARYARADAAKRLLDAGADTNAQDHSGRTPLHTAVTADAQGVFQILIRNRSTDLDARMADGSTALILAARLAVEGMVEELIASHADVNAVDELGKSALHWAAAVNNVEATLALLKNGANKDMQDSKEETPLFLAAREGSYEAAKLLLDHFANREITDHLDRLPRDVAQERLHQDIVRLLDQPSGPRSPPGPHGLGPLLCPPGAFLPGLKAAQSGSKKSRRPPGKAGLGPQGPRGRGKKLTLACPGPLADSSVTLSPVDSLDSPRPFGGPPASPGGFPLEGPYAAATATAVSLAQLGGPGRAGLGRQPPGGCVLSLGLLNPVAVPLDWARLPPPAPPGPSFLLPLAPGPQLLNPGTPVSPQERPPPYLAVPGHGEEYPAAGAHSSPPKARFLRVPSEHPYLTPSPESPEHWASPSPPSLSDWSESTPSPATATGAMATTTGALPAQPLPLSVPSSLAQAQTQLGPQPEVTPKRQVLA
# T2 sequence (P46531 19-2555 E424Q): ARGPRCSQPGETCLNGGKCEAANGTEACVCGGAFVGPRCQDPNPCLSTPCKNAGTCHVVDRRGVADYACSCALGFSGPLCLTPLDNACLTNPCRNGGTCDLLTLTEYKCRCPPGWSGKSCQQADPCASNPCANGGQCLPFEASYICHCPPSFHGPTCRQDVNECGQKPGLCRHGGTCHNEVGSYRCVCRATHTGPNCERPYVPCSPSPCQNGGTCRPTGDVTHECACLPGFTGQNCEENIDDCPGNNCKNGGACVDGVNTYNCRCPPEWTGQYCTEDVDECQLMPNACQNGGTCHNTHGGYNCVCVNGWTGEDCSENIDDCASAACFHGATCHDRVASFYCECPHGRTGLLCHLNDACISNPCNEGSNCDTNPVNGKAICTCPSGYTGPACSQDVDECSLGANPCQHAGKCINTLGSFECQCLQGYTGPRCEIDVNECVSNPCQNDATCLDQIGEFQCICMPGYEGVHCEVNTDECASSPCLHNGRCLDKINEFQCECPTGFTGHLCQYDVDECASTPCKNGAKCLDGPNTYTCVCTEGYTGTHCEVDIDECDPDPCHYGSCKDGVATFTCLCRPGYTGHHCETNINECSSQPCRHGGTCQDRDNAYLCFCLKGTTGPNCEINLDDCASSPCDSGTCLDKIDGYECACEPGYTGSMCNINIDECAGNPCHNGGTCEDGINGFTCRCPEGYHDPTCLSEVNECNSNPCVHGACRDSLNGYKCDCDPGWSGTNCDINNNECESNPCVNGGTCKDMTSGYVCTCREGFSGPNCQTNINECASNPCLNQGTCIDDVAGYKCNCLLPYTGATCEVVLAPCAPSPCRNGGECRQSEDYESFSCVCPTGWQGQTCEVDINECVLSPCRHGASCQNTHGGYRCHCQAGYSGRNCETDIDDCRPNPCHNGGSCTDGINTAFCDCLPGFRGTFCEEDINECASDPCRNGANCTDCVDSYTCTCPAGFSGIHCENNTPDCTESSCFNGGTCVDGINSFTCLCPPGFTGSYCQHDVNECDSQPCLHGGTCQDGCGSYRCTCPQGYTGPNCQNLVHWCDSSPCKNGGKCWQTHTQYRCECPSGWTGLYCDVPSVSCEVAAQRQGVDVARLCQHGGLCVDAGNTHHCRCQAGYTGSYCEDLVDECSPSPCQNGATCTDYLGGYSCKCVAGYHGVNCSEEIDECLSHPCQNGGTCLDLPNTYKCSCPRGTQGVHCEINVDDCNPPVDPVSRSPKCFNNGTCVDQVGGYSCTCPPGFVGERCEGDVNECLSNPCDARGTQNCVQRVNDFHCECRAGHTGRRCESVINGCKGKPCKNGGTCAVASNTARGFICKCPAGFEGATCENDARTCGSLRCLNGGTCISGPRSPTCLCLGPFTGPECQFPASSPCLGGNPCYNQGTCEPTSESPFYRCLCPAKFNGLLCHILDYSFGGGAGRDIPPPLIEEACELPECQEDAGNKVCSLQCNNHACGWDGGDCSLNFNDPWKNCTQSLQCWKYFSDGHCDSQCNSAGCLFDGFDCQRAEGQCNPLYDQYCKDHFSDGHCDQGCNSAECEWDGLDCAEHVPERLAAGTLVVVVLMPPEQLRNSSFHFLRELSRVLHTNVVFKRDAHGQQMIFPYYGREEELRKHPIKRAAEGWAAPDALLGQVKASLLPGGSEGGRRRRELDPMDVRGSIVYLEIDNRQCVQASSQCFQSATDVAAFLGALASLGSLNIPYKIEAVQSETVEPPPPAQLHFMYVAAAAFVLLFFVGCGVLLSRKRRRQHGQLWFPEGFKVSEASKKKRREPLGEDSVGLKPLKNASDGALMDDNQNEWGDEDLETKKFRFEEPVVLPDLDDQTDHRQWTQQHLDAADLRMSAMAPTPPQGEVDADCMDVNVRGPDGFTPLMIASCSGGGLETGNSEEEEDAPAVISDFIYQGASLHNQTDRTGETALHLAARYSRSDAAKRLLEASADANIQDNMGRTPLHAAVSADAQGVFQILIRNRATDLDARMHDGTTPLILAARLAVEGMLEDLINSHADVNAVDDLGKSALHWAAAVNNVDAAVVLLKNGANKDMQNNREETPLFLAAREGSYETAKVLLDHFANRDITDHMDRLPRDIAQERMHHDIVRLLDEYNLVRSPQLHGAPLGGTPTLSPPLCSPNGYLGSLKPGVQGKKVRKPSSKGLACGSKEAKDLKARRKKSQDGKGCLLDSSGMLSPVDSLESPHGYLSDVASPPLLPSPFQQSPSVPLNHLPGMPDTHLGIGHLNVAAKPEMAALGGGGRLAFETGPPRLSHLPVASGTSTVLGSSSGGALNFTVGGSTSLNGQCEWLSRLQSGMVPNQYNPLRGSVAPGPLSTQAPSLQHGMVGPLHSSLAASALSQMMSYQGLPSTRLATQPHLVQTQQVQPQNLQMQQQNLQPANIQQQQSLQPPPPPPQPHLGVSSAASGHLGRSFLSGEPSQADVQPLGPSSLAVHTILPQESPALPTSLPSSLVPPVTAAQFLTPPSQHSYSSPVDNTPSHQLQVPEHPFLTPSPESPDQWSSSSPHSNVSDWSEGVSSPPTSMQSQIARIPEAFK
# Sequence of Notch3 (E403Q) (Q9UM47 40-2321 E403Q): as the sequence (Q9UM47 40-2321) above, with E364Q counted along it
# T1 sequence (P46531 19-2555): as the sequence (P46531 19-2555 E424Q) above, with Q406E counted along it
Molecule,formation of Notch ICD in response to DLL4 [1],binding to cells expressing wild type Notch1 [2],binding to cells expressing Notch1 E424Q (Notch1 E424Q),binding to human Notch3 (human Notch3),binding to murine Notch3 (murine Notch3),binding to Notch3 (E403Q) (Notch3 (E403Q)),blocking of binding between DLL4 and Notch1 (human Notch1),"tumor growth, PE13, combination (PE13 breast tumor cells; [3])","tumor growth, PE13 (PE13 breast tumor cells; [4])","tumor growth, T3, combination (T3 breast tumor cells; [3])","tumor growth, T3 (T3 breast tumor cells; [4])"
"C[C@H](NC(=O)Cc1cc(F)cc(F)c1)C(=O)N[C@@H]1C(=O)N(C)c2ccccc2-c2ccccc21 [DBZ, reference compound]",prevented formation of Notch ICD; also recorded: blocked this signaling event,–,–,–,–,–,–,–,–,–,–
B1,–,ability to bind to Notch1,not to Notch1(E424Q),bound,bound,not Notch3 (E403Q),–,–,–,–,–
B2,prevented formation of Notch ICD; also recorded: inhibited ICD formation,–,–,–,–,–,blocked the binding; also recorded: disrupted ligand binding,virtually eliminated tumor growth,significantly reduced tumor growth; also recorded: reduced tumor growth significantly,virtually eliminated T3 tumor growth,significantly reduced tumor growth; also recorded: reduced tumor growth significantly
